Target: MHF1 (CENP-S);MHF2 (CENP-X) (Homo sapiens;Homo sapiens, UniProt Q8N2Z9;A8MT69 1-138;1-81, |)
Assay: X-ray crystallography

MHF1 (CENP-S);MHF2 (CENP-X), sequence (Q8N2Z9 whole entry, chain 1 of 2): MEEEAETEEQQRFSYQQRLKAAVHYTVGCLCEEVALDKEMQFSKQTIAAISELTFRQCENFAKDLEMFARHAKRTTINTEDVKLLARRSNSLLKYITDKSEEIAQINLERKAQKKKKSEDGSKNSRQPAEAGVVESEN
MHF1 (CENP-S);MHF2 (CENP-X), sequence (A8MT69 whole entry, chain 2 of 2): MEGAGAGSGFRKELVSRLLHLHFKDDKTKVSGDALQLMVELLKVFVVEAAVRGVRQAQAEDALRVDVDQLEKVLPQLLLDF

B1: 26 bp dsDNA (crystal) (dsDNA)
DNA 1: ATCAATATCCACCGGTGGATATTGAT
DNA 2: ATCAATATCCACCGGTGGATATTGAT
**Q.** Does B1 bind?
**A.** Result: binds
